# T1: hIL11Rα (Homo sapiens, UniProt Q14626)
# T1 construct: purchased SinoBiological 10252-H08H
# T1 sequence (Q14626 23-422): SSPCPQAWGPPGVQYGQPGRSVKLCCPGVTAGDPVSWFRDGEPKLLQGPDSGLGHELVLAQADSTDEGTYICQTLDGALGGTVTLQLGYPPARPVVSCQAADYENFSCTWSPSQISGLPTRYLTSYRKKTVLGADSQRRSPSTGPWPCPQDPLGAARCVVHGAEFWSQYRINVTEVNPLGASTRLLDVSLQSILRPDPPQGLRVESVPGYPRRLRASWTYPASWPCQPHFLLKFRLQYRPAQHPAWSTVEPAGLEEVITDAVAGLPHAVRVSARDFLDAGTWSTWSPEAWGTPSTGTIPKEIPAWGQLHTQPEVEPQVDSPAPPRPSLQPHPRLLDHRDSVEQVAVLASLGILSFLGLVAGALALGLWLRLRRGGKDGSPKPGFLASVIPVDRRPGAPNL
# B1: rhIL11: Recombinant human IL11 (UniProtKB:P20809, Genscript) (protein)
# chain: PGPPPGPPRVSPDPRAELDSTVLLTRSLLADTRQLAAQLRDKFPADGDHNLDSLPTLAMSAGALGALQLPGVLTRLRADLLSYLRHVQWLRRAGGSSLKTLEPELGTLQARLDRLLRRLQLLMSRLALPQPPPDPPAPPLAPPSSAWGGIRAAHAILGGLHLTLDWAVRGLLLLKTRL
# Assays:
# intestinal inflammation = settings: mucosal sheets 10-10,000 ng/ml; rats 33 μg/kg alternate days 1 or 2 weeks; cited from earlier work
# heart [1] = settings: 8 μg/kg, IV 24 hours after ligation, then every 24 hours for 4 days; cited from earlier work
# [2] = system: LPS-induced hepatic injury (acute endotoxemia); settings: 150 μg/kg, IP; cited from earlier work
# IL-11Rα = settings: low affinity; cited from earlier work
# [3] = system: Concanavalin A-induced T-cell-mediated hepatotoxicity; settings: 50-500 μg/kg, IP 2 hours prior to Concanavalin A; cited from earlier work
# [4] = system: primary human hepatocytes; experiment: IL11 stimulation of primary human hepatocytes with sgp130 or sIL11Rα; format: cell-based; settings: IL11 0.625 ng/ml to 20 ng/ml
# heart [5] = settings: 20 μg/kg, IV at the start of reperfusion; cited from earlier work
# rheumatoid arthritis = settings: up to 15 μg/kg weekly for 12 weeks (SC); cited from earlier work
# [6] = system: murine primary macrophages; settings: 10-100 ng/ml; cited from earlier work
# liver = settings: single subcutaneous injection 500 μg kg^-1
# Description: (A) Effect of recombinant human IL11 (rhIL11, 10 ng ml^−1) or recombinant mouse IL11 (rmIL11, 10 ng ml^−1) on ERK, JNK and CASP3 activation status in mouse hepatocytes. (B) ALT levels in mouse hepatocyte supernatant following stimulation by rmIL11 (10 ng ml^−1) or by increasing doses of rhIL11 (1, 5, 10, 15 and 20 ng ml^−1). (C) Schematic of mice receiving a single subcutaneous injection of either saline, rhIL11, or rmIl11 (500 μg kg^−1). (D) Western blot analysis of hepatic p-ERK, p-JNK, and Cl. […] Dose-dependent inhibition effect of rhIL11 on rmIL11-induced (K) ALT secretion and (L) CASP3 activation by mouse hepatocytes. (A, B, K, L) 24 h. (B, K) Data are shown as mean±SD; (E, G) Data are shown as box-and-whisker with median (middle line), 25th-75th percentiles (box), and minimum-maximum values (whiskers). (B, K) Two-tailed, Tukey-corrected Student's t-test; (E) two-tailed Student's t-test; (G) two-tailed Dunnett's test.
# The levels of alanine transaminase (ALT) or aspartate aminotransferase (AST) in mouse serum and hepatocyte supernatant were measured using ALT Activity (ab105134, Abcam) or AST (ab105135, Abcam) Assay Kits. […] All colorimetric assays were performed according to the manufacturer's protocol.
# Western blots were carried out from hepatocyte and liver tissue lysates. […] Protein concentrations were determined by Bradford assay (Bio-Rad). […]
# LPS-induced lung injury = settings: 200 mg/kg, IP; cited from earlier work
# human hepatocytes = experiment: rhIL11 versus rmIL11 on human hepatocytes; format: cell-based; settings: 10 ng ml^-1
# mouse hepatocytes [7] = format: cell-based; settings: 24 h
# Excerpt: (§1) Mouse hepatocytes (ABC-TC3928, AcceGen Biotech) were maintained in mouse hepatocyte medium (ABC-TM3928, AcceGen Biotech) supplemented with 1% Penicillin-streptomycin.
# AILI = experiment: rhIL11 or rmIL11 injection in APAP OD mice; format: in vivo, mouse
# Description: FIGS. 10A to 10L. […] (A, B, K, L) 24 h. […] FC: fold change
# hIL11Rα = molecular target: T1, hIL11Rα; settings: rhIL11:hIL11Rα, reported previously, reconfirmed; cited from earlier work
# mouse hepatocytes [8] = experiment: rhIL11 versus rmIL11 on mouse hepatocytes; format: cell-based
# Excerpt: as §1
# ulcerative mucositis = settings: 50-100 μg/animal/day, SC; cited from earlier work
# IRI = settings: 500 μg/kg, IP one hour prior to IRI; cited from earlier work
# [9] = system: epithelial cell integrity; settings: oral 0.5 mg/kg/day, 12 days; cited from earlier work
# [10] = system: chronic Hepatitis C and late stage liver disease; settings: 5 μg/kg, daily for 12 weeks, SC; 20 patients; cited from earlier work
# nephrotoxic nephritis = settings: 800-1360 μg/kg, IP 2 hours prior, then once daily for 6 days; cited from earlier work
# [11] = system: primary human hepatocytes; experiment: IL11 effect on GSH and NOX4 in primary human hepatocytes; format: cell-based
# GVHD = settings: 250 μg/kg, SC, twice daily; cited from earlier work
# [12] = system: collagen-induced arthritis; settings: 0.3-100 μg/mouse/day, IP, 10 days; cited from earlier work
# [13] = system: primary human hepatocytes; experiment: IL-11 treatment of primary human hepatocytes: ALT in supernatant, actin stress fibres; format: cell-based; settings: IL-11 0.019-10 ng/ml, 24 h
# Description: IL-11 mediated hepatocyte cell death was measured by determining the levels of alanine transaminase (ALT) in hepatocyte supernatant after treatment with a range of IL-11 doses (0.019-10 ng/ml). ALT levels were measured using ALT Activity Assay Kit (ab105134, Abcam) according to the manufacturer's protocol. Concurrent number of stress fibres 24 h after IL-11 stimulation was detected by rhodamine-phalloidin staining.
# [14] = system: early intestinal radiation injury; settings: 2 mg/kg/d from 2 days prior until 2 weeks after irradiation; cited from earlier work
# [15] = system: Borrelia burgdorferi-infected mice; settings: 0.1-2 μg/mouse/day, 5 days/week for 3 weeks; cited from earlier work
# [16] = subcutaneous injection, APAP OD
molecule,measurement,setting,value
B1,epithelial transport and inflammation,intestinal inflammation,acts as a modulator of epithelial transport or as an anti-
same,post-MI scar volume,heart [1],then consecutively every 24 hours for 4 days reduces post-MI
same,LPS-induced hepatic injury,[2],significant protective role in LPS-induced hepatic injury (acute
same,Kd,IL-11Rα,~10 nM
same,liver necrosis,[3],Concanavalin A-induced T-cell-mediated hepatotoxicity reduces
same,survival,[3],liver necrosis and enhanced survival in mice.
same,hepatocyte cell death (ALT),[4],dose-dependently (0.625 ng/ml to 20 ng/ml) caused hepatocyte cell death
same,adverse cardiac remodeling and apoptosis,heart [5],prevents adverse cardiac remodeling and apoptosis after
same,patients with mild adverse effect (erythema with/without induration) at the injection site,rheumatoid arthritis,with/without induration) at the injection site was seen in 60.6% of
same,therapeutic benefit,rheumatoid arthritis,no therapeutic benefit
same,secretion of pro-inflammatory cytokines by macrophages,[6],The authors conclude that IL11 inhibits the secretion of pro-
same,hepatic ERK and JNK phosphorylation,liver,no effect on ERK or JNK phosphorylation
same,LPS-induced lung injury and lethality,LPS-induced lung injury,inflammatory activity that protects against LPS-induced lung
same,ERK and JNK signaling and hepatocyte death,human hepatocytes,stimulated ERK and JNK signaling and hepatocyte death
same,GSH levels in rmIL11 stimulated mouse cells,mouse hepatocytes [7],"clear, dose-dependent effects of rhIL11 in restoring GSH levels"
same,hepatic ERK and JNK activation,AILI; 24 h following APAP administration,reduction in hepatic ERK and JNK activation
same,hepatic GSH levels after APAP,AILI; APAP injury,restored APAP-induced GSH depletion
same,reduction of serum ALT (severity of AILI),AILI; [16],52%
same,reduction of serum AST (severity of AILI),AILI; [16],39%
same,Kd,hIL11Rα,50 nM
same,"ERK and JNK phosphorylation, CASP3 cleavage","mouse hepatocytes [8]; 10 ng ml^-1, 24 h",had no effect
same,mouse hepatocyte cell death (ALT in supernatant),mouse hepatocytes [8]; 24 h,did not
same,5-fluorouracil-induced ulcerative mucositis,ulcerative mucositis,"Administration of rhIL11 (50-100 μg/animal/day, SC) protects"
same,hepatoprotection in IRI,IRI,Hepatoprotective effects of rhIL11 in mice subjected to a single
same,epithelial cell integrity during cyclophosphamide chemotherapy,[9],The authors suggest that IL11 maintains epithelial cell integrity
same,serum ALT by study end,[10],Lower serum ALT was observed by study end. The most
same,ECM deposition,nephrotoxic nephritis,nephrotoxic nephritis and then once daily for 6 days suppresses
same,GSH depletion,[11]; dose range and time course,stimulated dose-dependent GSH depletion
same,NOX4 expression,[11]; rhIL11 10 ng ml^-1,NOX4 upregulation
same,Graft-vs-Host-Disease,GVHD,The authors conclude that IL11 prevents Graft-vs-Host-Disease
same,inflammation,[12],days) reduces inflammation in a murine model of collagen-
same,actin stress fibres in hepatocytes,[13],progressively stimulated an increase in actin stress fibres
same,alanine aminotransferase (ALT) in hepatocyte supernatant (hepatocyte cell death),[13],progressive increase in alanine aminotransferase (ALT)
same,early intestinal radiation injury,[14],The authors conclude that IL11 ameliorates early intestinal
same,arthritis and carditis,[15],"weeks) reduces arthritis, but not carditis, in Borrelia burgdorferi-"
